Earlier results on 1 substance are cited in publication PMC9601870.

The target of the data set is Cys32 (UniProt position 33, FWAEWCGPCKM). The conditions noted are these: not stated (thiol ionisation implies the reduced dithiol form; inferred).

Regarding Thioredoxin 1 (Trx) (Escherichia coli), the pKa is recorded as 7.1–7.4.
